{"source": "the supplement of paper PMC9112550", "about": "“Optimization of the antimicrobial peptide Bac7 by deep mutational scanning” (BMC Biology, 2022);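 also: peptides expressed intracellularly from a pBAD plasmid library in pooled LB shake-flask culture, induced with 0.3% L-arabinose, DNA abundance read by NGS, three biological replicates, DESeq2 with apeglm shrinkage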", "data": [{"tested_on": "Escherichia coli TOP10", "assay": "shrunken log2 fold change of peptide-encoding DNA abundance (4.5 h post-induction vs induction); higher = less antimicrobial activity (less host growth inhibition)", "details": "time post-induction: 4.5 h; library: site-saturation at positions 5, 18, 19, 20", "values": [{"sequence": "RRIRWRPPRLPRPRPRPDLDPRP", "shrunken log2 fold change": 0.311}, {"sequence": "RRIRCRPPRLPRPRPRPAWCPRP", "shrunken log2 fold change": 0.128}, {"sequence": "RRIRWRPPRLPRPRPRPTSCPRP", "shrunken log2 fold change": 0.581}, {"sequence": "RRIRMRPPRLPRPRPRPWEPPRP", "shrunken log2 fold change": 0.127}, {"sequence": "RRIRHRPPRLPRPRPRPAKMPRP", "shrunken log2 fold change": 0.0344}, {"sequence": "RRIRGRPPRLPRPRPRPKNNPRP", "shrunken log2 fold change": 0.198}, {"sequence": "RRIRWRPPRLPRPRPRPDSAPRP", "shrunken log2 fold change": 0.139}, {"sequence": "RRIRHRPPRLPRPRPRPIDRPRP", "shrunken log2 fold change": -0.263}, {"sequence": "RRIRRRPPRLPRPRPRPAGWPRP", "shrunken log2 fold change": 0.593}, {"sequence": "RRIRKRPPRLPRPRPRPPMIPRP", "shrunken log2 fold change": -0.0795}, {"sequence": "RRIRGRPPRLPRPRPRPTSQPRP", "shrunken log2 fold change": 0.87}, {"sequence": "RRIRWRPPRLPRPRPRPSHCPRP", "shrunken log2 fold change": -0.689}, {"sequence": "RRIRVRPPRLPRPRPRPNWYPRP", "shrunken log2 fold change": -0.523}, {"sequence": "RRIRARPPRLPRPRPRPMFHPRP", "shrunken log2 fold change": -0.275}, {"sequence": "RRIRNRPPRLPRPRPRPTDRPRP", "shrunken log2 fold change": 0.0372}, {"sequence": "RRIRFRPPRLPRPRPRPEDSPRP", "shrunken log2 fold change": -0.00878}, {"sequence": "RRIRLRPPRLPRPRPRPIVEPRP", "shrunken log2 fold change": 0.0406}, {"sequence": "RRIRIRPPRLPRPRPRPYKWPRP", "shrunken log2 fold change": -0.424}, {"sequence": "RRIRFRPPRLPRPRPRPRRLPRP", "shrunken log2 fold change": 0.462}, {"sequence": "RRIRCRPPRLPRPRPRPFVIPRP", "shrunken log2 fold change": -0.526}, {"sequence": "RRIRHRPPRLPRPRPRPVCIPRP", "shrunken log2 fold change": -1.22}, {"sequence": "RRIRPRPPRLPRPRPRPTIYPRP", "shrunken log2 fold change": -0.413}, {"sequence": "RRIRIRPPRLPRPRPRPGFIPRP", "shrunken log2 fold change": -0.391}, {"sequence": "RRIRLRPPRLPRPRPRPLMTPRP", "shrunken log2 fold change": -0.344}, {"sequence": "RRIRGRPPRLPRPRPRPTNRPRP", "shrunken log2 fold change": 0.258}, {"sequence": "RRIRTRPPRLPRPRPRPITQPRP", "shrunken log2 fold change": -0.168}, {"sequence": "RRIRQRPPRLPRPRPRPQQPPRP", "shrunken log2 fold change": 0.00789}, {"sequence": "RRIRKRPPRLPRPRPRPYTVPRP", "shrunken log2 fold change": -0.0362}, {"sequence": "RRIRQRPPRLPRPRPRPDAEPRP", "shrunken log2 fold change": 0.105}, {"sequence": "RRIRHRPPRLPRPRPRPKMSPRP", "shrunken log2 fold change": 0.166}, {"sequence": "RRIRRRPPRLPRPRPRPRDTPRP", "shrunken log2 fold change": 0.6}, {"sequence": "RRIRARPPRLPRPRPRPFSNPRP", "shrunken log2 fold change": -0.342}, {"sequence": "RRIRWRPPRLPRPRPRPAWVPRP", "shrunken log2 fold change": 0.378}, {"sequence": "RRIRMRPPRLPRPRPRPYISPRP", "shrunken log2 fold change": -0.353}, {"sequence": "RRIRNRPPRLPRPRPRPRGYPRP", "shrunken log2 fold change": -0.846}, {"sequence": "RRIRCRPPRLPRPRPRPHQMPRP", "shrunken log2 fold change": -0.691}, {"sequence": "RRIRERPPRLPRPRPRPWKGPRP", "shrunken log2 fold change": -0.0443}, {"sequence": "RRIRIRPPRLPRPRPRPSMVPRP", "shrunken log2 fold change": -0.654}, {"sequence": "RRIRPRPPRLPRPRPRPSTKPRP", "shrunken log2 fold change": -0.0696}, {"sequence": "RRIRVRPPRLPRPRPRPCHFPRP", "shrunken log2 fold change": -0.0858}, {"sequence": "RRIRQRPPRLPRPRPRPCIDPRP", "shrunken log2 fold change": -0.424}, {"sequence": "RRIRMRPPRLPRPRPRPMWKPRP", "shrunken log2 fold change": -0.00141}, {"sequence": "RRIRPRPPRLPRPRPRPRNVPRP", "shrunken log2 fold change": 0.0758}, {"sequence": "RRIRSRPPRLPRPRPRPLHKPRP", "shrunken log2 fold change": 0.104}, {"sequence": "RRIRWRPPRLPRPRPRPLYPPRP", "shrunken log2 fold change": -0.208}, {"sequence": "RRIRPRPPRLPRPRPRPDIPPRP", "shrunken log2 fold change": -0.219}, {"sequence": "RRIRKRPPRLPRPRPRPMGYPRP", "shrunken log2 fold change": -0.0267}, {"sequence": "RRIRWRPPRLPRPRPRPSMDPRP", "shrunken log2 fold change": -0.128}, {"sequence": "RRIRSRPPRLPRPRPRPWTIPRP", "shrunken log2 fold change": -0.133}, {"sequence": "RRIRARPPRLPRPRPRPTFIPRP", "shrunken log2 fold change": -0.18}, {"sequence": "RRIRWRPPRLPRPRPRPPGTPRP", "shrunken log2 fold change": 0.475}, {"sequence": "RRIRRRPPRLPRPRPRPMQWPRP", "shrunken log2 fold change": 0.103}, {"sequence": "RRIRSRPPRLPRPRPRPCVKPRP", "shrunken log2 fold change": -0.414}, {"sequence": "RRIRHRPPRLPRPRPRPEPTPRP", "shrunken log2 fold change": 0.179}, {"sequence": "RRIRIRPPRLPRPRPRPVPTPRP", "shrunken log2 fold change": 0.0576}, {"sequence": "RRIRTRPPRLPRPRPRPGHFPRP", "shrunken log2 fold change": -0.215}, {"sequence": "RRIRERPPRLPRPRPRPMCVPRP", "shrunken log2 fold change": -0.461}, {"sequence": "RRIRERPPRLPRPRPRPWIKPRP", "shrunken log2 fold change": -0.924}, {"sequence": "RRIRMRPPRLPRPRPRPDWKPRP", "shrunken log2 fold change": 0.0125}, {"sequence": "RRIRIRPPRLPRPRPRPMFFPRP", "shrunken log2 fold change": -0.534}, {"sequence": "RRIRFRPPRLPRPRPRPWNHPRP", "shrunken log2 fold change": -0.141}, {"sequence": "RRIRKRPPRLPRPRPRPCCPPRP", "shrunken log2 fold change": -0.044}, {"sequence": "RRIRLRPPRLPRPRPRPKLMPRP", "shrunken log2 fold change": -0.162}, {"sequence": "RRIRIRPPRLPRPRPRPKICPRP", "shrunken log2 fold change": -0.883}, {"sequence": "RRIRRRPPRLPRPRPRPRHVPRP", "shrunken log2 fold change": 0.158}, {"sequence": "RRIRMRPPRLPRPRPRPTVPPRP", "shrunken log2 fold change": 0.388}, {"sequence": "RRIRHRPPRLPRPRPRPWCTPRP", "shrunken log2 fold change": -0.11}, {"sequence": "RRIRDRPPRLPRPRPRPMNKPRP", "shrunken log2 fold change": -0.381}, {"sequence": "RRIRVRPPRLPRPRPRPGITPRP", "shrunken log2 fold change": -0.238}, {"sequence": "RRIRLRPPRLPRPRPRPMGCPRP", "shrunken log2 fold change": 0.031}, {"sequence": "RRIRSRPPRLPRPRPRPVIVPRP", "shrunken log2 fold change": -0.191}, {"sequence": "RRIRKRPPRLPRPRPRPVSQPRP", "shrunken log2 fold change": 0.147}, {"sequence": "RRIRIRPPRLPRPRPRPSPSPRP", "shrunken log2 fold change": 0.0467}, {"sequence": "RRIRERPPRLPRPRPRPWTRPRP", "shrunken log2 fold change": -0.0974}, {"sequence": "RRIRMRPPRLPRPRPRPWKVPRP", "shrunken log2 fold change": -0.0135}]}]}
